{
  "source": "paper PMC9291269",
  "molecules": {"B1": {"name": "recombinant human serum amyloid A1 (rSAA1), P0DJI8 19-122 (natural protein)", "chain": "RSFFSFLGEAFDGARDMWRAYSDMREANYIGSDKYFHARGNYDAAKRGPGGAWAAEVITDARENIQRFFGHGAEDSLADQAANEWGRSGKDPNHFRPAGLPEKY"}},
  "key": {"[1]": {"target": "SAA1 secreted by BEAS-2B cells (lipid-free, in culture supernatant) (human (endogenous in BEAS-2B))", "experiment": "immunoblot of HDL-depleted cell culture supernatants"}, "[2]": {"target": "SAA1 secreted by BEAS-2B cells (lipid-free, in culture supernatant) (human (endogenous in BEAS-2B))", "experiment": "immunoblot of HDL-depleted cell culture supernatants", "remark": "listed apart in the source"}, "[3]": {"target": "T1, recombinant human serum amyloid A1 (rSAA1) (human), P0DJI8", "T1 chain": "B1 chain", "experiment": "immunoblot of cell culture supernatants", "details": "remark: other sources report otherwise"}, "[4]": {"target": "T1, recombinant human serum amyloid A1 …", "experiment": "immunoblot of cell culture supernatants", "details": "remark: other sources report otherwise"}},
  "note": "Where two headings read alike, the source gives them in different places.",
  "data": [
    {"molecule": "SAA1 secreted by BEAS-2B cells (lipid-free, in culture supernatant) (natural protein)", "values": [
      {"measurement": "stoichiometry N", "setting": "[1]", "result": 2},
      {"measurement": "stoichiometry N", "setting": "[2]", "result": 6}
    ]},
    {"molecule": "B1", "values": [
      {"measurement": "stoichiometry N", "setting": "[3]", "result": 6},
      {"measurement": "stoichiometry N", "setting": "[4]", "result": 2}
    ]}
  ]
}
